This is an account of results in patent publication US7442378B2, “Attenuated circovirus” (The University of Melbourne, priority 2001, dated 2008).

The test system of one data set is CAV VP2-GST PTPase. As to the kind of experiment: Sodium orthovanadate inhibition of PTPase activity. The format is biochemical, Chicken anaemia virus. As to the method:
Stock 1 mM […] was made in distilled water and adjusted to pH 10 with sulphuric acid. Once dissolved, stock […] was added to AB and TB buffer at a ratio of 1:1:1 and adjusted to pH 7. Inhibition studies were conducted with 0.1 mM, 0.01 mM and 0.001 mM of sodium orthovanadate. All other reaction conditions were as described above. Assays were with 10 nmol substrate and 9 μg CAV VP2-GST and were in triplicate for each concentration of inhibitor.

For data set [1] the following is noted: known PTPases, comparison values; cited from earlier work.
Data set [2] relates to T1, phosphopeptide substrate H-Glu-Asn-Asp-Tyr(PO3H2)-Ile-Asn-Ala-Ser-Leu-OH.
T1 sequence: ENDYINASL

The target in data set [3] is T2, phosphopeptide substrate H-Glu-Asn-Asp-Tyr(PO3H2)-Ile-Asn-Ala-Ser-Leu-OH.
T2 chain: ENDYINASL

Data set [4] relates to peptide substrate ENDY(Pi)INASL. Format: biochemical.
Data set [5] shares this test system. The data set is described as follows: Enzyme pH optimum of CAV VP2-GST PTPase. Format: biochemical. As to the method: Triplicate reactions were set up at pH 4, pH 5, pH 6, pH 7, pH 8 and pH 9. Assays were with 10 nmol substrate and 9 μg CAV VP2-GST and all other reaction conditions were as described above. Prior to addition of the malachite green reagent the pH was neutralised to pH 7 with either sulphuric acid or sodium hydroxide.

“Also recorded” adds a separate entry of the source.

For the molecule `[Na+].[Na+].[Na+].[O]=[V]([O-])([O-])[O-]` [sodium orthovanadate], in the data set with CAV VP2-GST PTPase, the “Inhibition of VP2-GST PTPase activity” value was “specifically inhibited; also recorded: completely inhibited” and the “Orthovanadate concentration giving maximal inhibition of CAV VP2 activity (as low as)” value stood at 0.001 mM.
Regarding “PTP1B: low Mr PTPase cited for comparison [reference compound]”, in data set [1], the Vmax is 20 000 U/mg min.
Take TLMV ORF2-GST fusion protein: the “PTPase activity (steady state)” value in data set [2] is “The steady state activity was equivalent to that demonstrated for CAV VP2”.

B1: CAV VP2-GST fusion protein (protein)
chain: MHGNGGQPAAGGSESALSREGQPGPSGAAQGQVISNERSPRRYSTRTINGVQATNKFTAVGNPSLQRDPDWYRWNYSHSIAVWLRECSRSHAKICNCGQFRKHWFQECAGLEDRSTQASLEEAILRPLRVQGKRAKRKLDYHYSQPTPNRKKVYKTVRWQDELADREADFTPSEEDGGTTSSDFDEDINFDIGGDSGIVDELLGRPFTTPAPVRIV
Consider B1, for which, in data set [3], the “Km (PTPase assay, malachite green, Lineweaver-Burk plot)” value is given as “Km to be 16.95 µM”; the “Vmax (PTPase assay, malachite green, Lineweaver-Burk plot)” value is given as “Vmax was estimated to be 14 280 U/mg min”; the Vo with 0.001 mM orthovanadate, 10 nmol substrate was found to be 0.002; the Vo with 0.01 mM orthovanadate, 10 nmol substrate was found to be 0. In addition, in data set [3], the Vo with 0.1 mM orthovanadate, 10 nmol substrate came out at 0; the Vo without orthovanadate, 10 nmol substrate was 5.61; the mean Vo (nmol) at pH 4, 10 nmol substrate amounted to 1.75 nmol; the mean Vo (nmol) at pH 5, 10 nmol substrate came to 1.47 nmol. Besides, in data set [3], the mean Vo (nmol) at pH 6, 10 nmol substrate came to 5.64 nmol; the mean Vo (nmol) at pH 7, 10 nmol substrate turned out to be 5.61 nmol; the mean Vo (nmol) at pH 8, 10 nmol substrate amounted to 1.83 nmol; the mean Vo (nmol) at pH 9, 10 nmol substrate was 0 nmol.

B2: VP2-GST: CAV viral protein 2 produced as fusion with glutathione S-transferase in E. coli (protein)
chain: B1 chain
modifications: left off: a dimerising Fc or GST
notes: CAV viral protein 2 produced as fusion with glutathione S-transferase in E. coli
Take B2: the 1/Vmax in data set [4] (linear regression of double reciprocal plot) amounted to 0.060. The Vmax in data set [4] (substrate ENDY(Pi)INASL, Lineweaver-Burk plot, Vo at 1 min) was 14 280 U/mg min. The “mean Vo, PTPase activity” value in data set [5] (pH 4, S 10 nmol) is listed as 1.746 nmol; in data set [5] (pH 5, S 10 nmol) it was 1.474 nmol; in data set [5] (pH 6, S 10 nmol), 5.636 nmol; in data set [5] (pH 7, S 10 nmol), 5.612 nmol; in data set [5] (pH 8, S 10 nmol) it was 1.829 nmol; in data set [5] (pH 9, S 10 nmol), 0.000 nmol. Besides, the “pH of optimal PTPase activity” value in data set [5] (reactions at pH 4 to pH 9, listed as CAV VP2) is recorded as 6-7.

B3: CD45: high Mr PTPase from human spleen cited for comparison (protein, UniProt P08575 26-1306, looked up)
Receptor-type …: QSPTPSPTGLTTAKMPSVPLSSDPLPTHTTAFSPASTFERENDFSETTTSLSPDNTSTQVSPDSLDNASAFNTTGVSSVQTPHLPTHADSQTPSAGTDTQTFSGSAANAKLNPTPGSNAISDVPGERSTASTFPTDPVSPLTTTLSLAHHSSAALPARTSNTTITANTSDAYLNASETTTLSPSGSAVISTTTIATTPSKPTCDEKYANITVDYLYNKETKLFTAKLNVNENVECGNNTCTNNEVHNLTECKNASVSISHNSCTAPDKTLILDVPPGVEKFQLHDCTQVEKADTTICLKWKNIETFTCDTQNITYRFQCGNMIFDNKEIKLENLEPEHEYKCDSEILYNNHKFTNASKIIKTDFGSPGEPQIIFCRSEAAHQGVITWNPPQRSFHNFTLCYIKETEKDCLNLDKNLIKYDLQNLKPYTKYVLSLHAYIIAKVQRNGSAAMCHFTTKSAPPSQVWNMTVSMTSDNSMHVKCRPPRDRNGPHERYHLEVEAGNTLVRNESHKNCDFRVKDLQYSTDYTFKAYFHNGDYPGEPFILHHSTSYNSKALIAFLAFLIIVTSIALLVVLYKIYDLHKKRSCNLDEQQELVERDDEKQLMNVEPIHADILLETYKRKIADEGRLFLAEFQSIPRVFSKFPIKEARKPFNQNKNRYVDILPYDYNRVELSEINGDAGSNYINASYIDGFKEPRKYIAAQGPRDETVDDFWRMIWEQKATVIVMVTRCEEGNRNKCAEYWPSMEEGTRAFGDVVVKINQHKRCPDYIIQKLNIVNKKEKATGREVTHIQFTSWPDHGVPEDPHLLLKLRRRVNAFSNFFSGPIVVHCSAGVGRTGTYIGIDAMLEGLEAENKVDVYGYVVKLRRQRCLMVQVEAQYILIHQALVEYNQFGETEVNLSELHPYLHNMKKRDPPSEPSPLEAEFQRLPSYRSWRTQHIGNQEENKSKNRNSNVIPYDYNRVPLKHELEMSKESEHDSDESSDDDSDSEEPSKYINASFIMSYWKPEVMIAAQGPLKETIGDFWQMIFQRKVKVIVMLTELKHGDQEICAQYWGEGKQTYGDIEVDLKDTDKSSTYTLRVFELRHSKRKDSRTVYQYQYTNWSVEQLPAEPKELISMIQVVKQKLPQKNSSEGNKHHKSTPLLIHCRDGSQQTGIFCALLNLLESAETEEVVDIFQVVKALRKARPGMVSTFEQYQFLYDVIASTYPAQNGQVKKNNHQEDKIEFDNEVDKVKQDANCVNPLGAPEKLPEAKEQAEGSEPTSGTEGPEHSVNGPASPALNQGS
Take B3: the Vmax in data set [1] is 1 000 U/mg min.
